{"source": "patent US20020137918A1", "molecules": {"B1": {"name": "Y64W PpL (protein)", "chain": "MNIKFAGKETPETPEEPKEEVTIKVNLIFADGKIQTAEFKGTFEEATAEAYRYADLLAKVNGEWTADLEDGGNHMNIKFAGK"}, "B2": {"name": "N76D F39W PpL (protein)", "chain": "B1 chain with F39W, W64Y, N76D"}, "B3": {"name": "Y53F Y64W PpL (protein)", "chain": "B1 chain with Y53F"}, "B4": {"name": "Y53H F39W PpL (protein)", "chain": "B1 chain with F39W, Y53H, W64Y"}, "B5": {"name": "L57H Y64W PpL (protein)", "chain": "B1 chain with L57H"}, "B6": {"name": "F39H PpL (protein)", "chain": "B1 chain with F39H, W64Y"}, "B7": {"name": "F39H Y64W PpL (protein)", "chain": "B1 chain with F39H"}, "B8": {"name": "L57H PpL (protein)", "chain": "B1 chain with L57H, W64Y"}, "B9": {"name": "Q35E F39W PpL (protein)", "chain": "B1 chain with Q35E, F39W, W64Y"}, "B10": {"name": "F39W PpL (protein)", "chain": "B1 chain with F39W, W64Y"}, "B11": {"name": "PpL (protein)", "chain": "B1 chain with W64Y"}, "B12": {"name": "Q35E Y64W PpL (protein)", "chain": "B1 chain with Q35E"}, "B13": {"name": "L57D Y64W PpL (protein)", "chain": "B1 chain with L57D"}}, "key": {"human IgG (human) [1]": {"target": "human IgG (human)", "experiment": "method not given"}, "human κ-chain (human) [2]": {"target": "human κ-chain (human)", "experiment": "method not given"}, "human IgG (human) [3]": {"target": "human IgG (human)", "experiment": "competitive ELISA at pH 8.0, against the Kd of PpL (112 nM)"}, "human IgG (human) [4]": {"target": "human IgG (human)", "experiment": "competitive ELISA at pH 8.0, PpL on the plate"}, "human κ-chain (human) [5]": {"target": "human κ-chain (human)", "experiment": "Kd at pH 8, method not stated; one Kd given for the mutation, ticked in PpL and Y64W PpL"}, "human κ-chain (human) [6]": {"target": "human κ-chain (human)", "experiment": "affinity chromatography, Y53F PpL coupled to agarose, human κ-chain eluted by falling pH"}, "human κ-chain (human) [7]": {"target": "human κ-chain (human)", "experiment": "affinity chromatography, Y53F PpL coupled to agarose, human κ-chain eluted by rising KCl"}, "human κ-chain (human) [8]": {"target": "human κ-chain (human)", "experiment": "affinity chromatography, Y53F PpL coupled to agarose, human κ-chain eluted by rising pH"}, "human IgG (human) [9]": {"target": "human IgG (human)", "experiment": "competitive ELISA, PpL on the plate, human IgG"}, "human κ-chain (human) [10]": {"target": "human κ-chain (human)", "experiment": "affinity chromatography, Y64W PpL coupled to agarose, human κ-chain eluted by rising pH"}, "human κ-chain (human) [11]": {"target": "human κ-chain (human)", "experiment": "affinity chromatography, Y64W PpL coupled to agarose, human κ-chain eluted by falling pH"}, "human κ-chain (human) [12]": {"target": "human κ-chain (human)", "experiment": "affinity chromatography, Y64W PpL coupled to agarose, human κ-chain eluted by rising KCl"}, "human κ-chain (human) [13]": {"target": "human κ-chain (human)", "experiment": "tryptophan fluorescence, complex against the sum of the spectra of the single proteins"}, "human κ-chain (human) [14]": {"target": "human κ-chain (human)", "experiment": "Kd at pH 8, method not stated; mutation ticked in F39W PpL"}, "human κ-chain (human) [15]": {"target": "human κ-chain (human)", "experiment": "tryptophan fluorescence, complex against the sum of the single proteins"}, "human κ-chain (human) [16]": {"target": "human κ-chain (human)", "experiment": "stopped flow fluorescence, equilibrium Kd"}, "human κ-chain (human) [17]": {"target": "human κ-chain (human)", "experiment": "stopped flow fluorescence, encounter complex"}, "human κ-chain (human) [18]": {"target": "human κ-chain (human)", "experiment": "stopped flow fluorescence"}, "human κ-chain (human) [19]": {"target": "human κ-chain (human)", "experiment": "isothermal titration calorimetry, 800 µM L57H PpL into 40 µM kappa light chain, 25 °C, pH 8.0"}, "human IgG (human) [20]": {"target": "human IgG (human)", "experiment": "competitive ELISA, Wt PpL immobilized, human IgG"}, "human κ-chain (human) [21]": {"target": "human κ-chain (human)", "experiment": "Kd at pH 8, method not stated; one Kd given for the mutation, ticked in Y64W PpL and F39W PpL"}, "human κ-chain (human) [22]": {"target": "human κ-chain (human)", "experiment": "fluorescence titration of F39W into 0.75 µM kappa chain, 18 °C, pH 8"}, "human κ-chain (human) [23]": {"target": "human κ-chain (human)", "experiment": "Kd at pH 8, method not stated; mutation ticked in PpL"}, "human κ-chain (human) [24]": {"target": "human κ-chain (human)", "experiment": "competitive fluorescence titration, PpL2Asn as competitor"}, "human κ-chain (human) [25]": {"target": "human κ-chain (human)", "experiment": "affinity chromatography, PpL coupled to agarose, human κ-chain eluted by falling pH"}, "human κ-chain (human) [26]": {"target": "human κ-chain (human)", "experiment": "affinity chromatography, PpL coupled to agarose, human κ-chain eluted by rising KCl"}, "human IgG (human) [27]": {"target": "human IgG (human)", "experiment": "competitive ELISA; told as 'previously determined for PpL'"}, "human IgG (human) [28]": {"target": "human IgG (human)", "experiment": "competitive ELISA, human IgG"}, "human κ-chain (human) [29]": {"target": "human κ-chain (human)", "experiment": "affinity chromatography, PpL coupled to agarose, human κ-chain eluted by rising pH"}, "human κ-chain (human) [30]": {"target": "human κ-chain (human)", "experiment": "Kd at pH 8, method not stated; mutation ticked in Y64W PpL"}}, "note": "Where a chain is given by its changes, count along the chain named. Numbers in names are those of the source."}
{"molecule": "Y53F PpL", "values": [{"measurement": "Kd", "setting": "human IgG (human) [1]", "result": 2000, "unit": "nM"}, {"measurement": "fold reduction in affinity against PpL", "setting": "human κ-chain (human) [2]", "result": 27, "unit": "fold"}, {"measurement": "fold increase in Kd against PpL", "setting": "human IgG (human) [3]", "result": 25, "unit": "fold"}, {"measurement": "Kd", "setting": "human IgG (human) [4]", "result": 3200, "unit": "nM"}, {"measurement": "Kd", "setting": "human κ-chain (human) [5]", "result": 1700, "unit": "nM"}, {"measurement": "elution condition, decreased pH", "setting": "human κ-chain (human) [6]", "result": 3.2, "unit": "pH"}, {"measurement": "elution condition, increase KCl", "setting": "human κ-chain (human) [7]", "result": 0.75, "unit": "M"}, {"measurement": "elution condition, increased pH", "setting": "human κ-chain (human) [8]", "result": 9.6, "unit": "pH"}]}
{"molecule": "B1", "values": [{"measurement": "Kd", "setting": "human IgG (human) [9]", "result": 129, "unit": "nM"}, {"measurement": "elution condition, increased pH", "setting": "human κ-chain (human) [10]", "result": 10.1, "unit": "pH"}, {"measurement": "elution condition, decreased pH", "setting": "human κ-chain (human) [11]", "result": 2.03, "unit": "pH"}, {"measurement": "elution condition, increase KCl", "setting": "human κ-chain (human) [12]", "result": 0.96, "unit": "M"}, {"measurement": "quench in fluorescence emission of the complex", "setting": "human κ-chain (human) [13]", "result": 9, "unit": "%"}]}
{"molecule": "B2", "values": [{"measurement": "Kd", "setting": "human κ-chain (human) [14]", "result": 400, "unit": "nM"}]}
{"molecule": "B3", "values": [{"measurement": "Kd", "setting": "human IgG (human) [4]", "result": 3320, "unit": "nM"}, {"measurement": "Kd", "setting": "human κ-chain (human) [5]", "result": 1700, "unit": "nM"}, {"measurement": "increase in fluorescence signal of the complex", "setting": "human κ-chain (human) [15]", "result": 10, "unit": "%"}]}
{"molecule": "B4", "values": [{"measurement": "Kd", "setting": "human κ-chain (human) [14]", "result": 500, "unit": "nM"}]}
{"molecule": "B5", "values": [{"measurement": "Kd", "setting": "human κ-chain (human) [5]", "result": 6000, "unit": "nM"}, {"measurement": "Kd", "setting": "human κ-chain (human) [16]", "result": 5400, "unit": "nM"}, {"measurement": "pre-equilibrium Kd", "setting": "human κ-chain (human) [17]", "result": 6800, "unit": "nM"}, {"measurement": "fold of equilibrium Kd against Y64W PpL", "setting": "human κ-chain (human) [18]", "result": 30, "unit": "fold"}, {"measurement": "fold of pre-equilibrium Kd against Y64W PpL", "setting": "human κ-chain (human) [18]", "result": 2, "unit": "fold"}]}
{"molecule": "B6", "values": [{"measurement": "Kd", "setting": "human κ-chain (human) [5]", "result": 1000, "unit": "nM"}]}
{"molecule": "B7", "values": [{"measurement": "Kd", "setting": "human κ-chain (human) [5]", "result": 1000, "unit": "nM"}]}
{"molecule": "B8", "values": [{"measurement": "Kd", "setting": "human κ-chain (human) [19]", "result": 5200, "unit": "nM"}, {"measurement": "Kd", "setting": "human κ-chain (human) [5]", "result": 6000, "unit": "nM"}, {"measurement": "Kd", "setting": "human IgG (human) [20]", "result": 4200, "unit": "nM"}]}
{"molecule": "B9", "values": [{"measurement": "Kd", "setting": "human κ-chain (human) [21]", "result": 300, "unit": "nM"}]}
{"molecule": "B10", "values": [{"measurement": "Kd", "setting": "human κ-chain (human) [22]", "result": 161, "unit": "nM"}, {"measurement": "Kd", "setting": "human κ-chain (human) [23]", "result": 160, "unit": "nM"}, {"measurement": "Kdapp in the presence of 5 µM PpL2Asn", "setting": "human κ-chain (human) [24]", "result": 310, "unit": "nM"}]}
{"molecule": "B11", "values": [{"measurement": "elution condition, decreased pH", "setting": "human κ-chain (human) [25]", "result": 1.96, "unit": "pH"}, {"measurement": "elution condition, increase KCl", "setting": "human κ-chain (human) [26]", "result": 0.95, "unit": "M"}, {"measurement": "Kd", "setting": "human IgG (human) [27]", "result": 112, "unit": "nM"}, {"measurement": "Kd", "setting": "human IgG (human) [28]", "result": 160, "unit": "nM"}, {"measurement": "elution condition, increased pH", "setting": "human κ-chain (human) [29]", "result": 10.2, "unit": "pH"}]}
{"molecule": "B12", "values": [{"measurement": "Kd", "setting": "human κ-chain (human) [21]", "result": 300, "unit": "nM"}]}
{"molecule": "B13", "values": [{"measurement": "Kd", "setting": "human κ-chain (human) [30]", "result": 2000, "unit": "nM"}]}
